From patent US20120316071A1 (published 2012) come the findings set out here.

In assay [1] the target is T1, Recombinant Human DLL4 (R&D Systems Cat#1506-D4/CF) (human, UniProt Q9NR61 27-524).
T1 construct: Bought recombinant protein; also called rHuman DLL4; delta-like protein 4
The assay can be described thus: MSD multispot ECL, antigen spotted, Fab 148.9 nM; blank spot 218.

Assay [2] concerns the target T2, rHuman ErbB2/Fc Chimera, CF (R&D Systems Cat#1129-ER) (human, UniProt P04626 23-652).
T2 construct: Bought reagent; also called human epidermal growth factor 2 receptor
The description is as above.

The target in assay [3] is T3, rHuman EGF R/Fc Chimera, CF (R&D Systems Cat#344-ER) (human, UniProt P00533 25-645).
T3 construct: Bought reagent; also called epidermal growth factor receptor
The assay is described as above.

Assay [4] addresses T4, rHuman HGF R/c-MET/Fc Chimera, CF (R&D Systems Cat#358-MT/CF) (human, UniProt P08581 25-932).
T4 construct: Bought reagent; also called HGF R/Fc; hepatocyte growth factor receptor
The assay is described as above.

In assay [5] the target is T5, rHuman Notch-1/Fc Chimera, CF (R&D Systems Cat#3647-TK) (human, UniProt P46531 19-526).
T5 construct: Bought reagent
The assay is described as above.

Assay [6] concerns the target T6, rHuman CD44/Fc Chimera, CF (R&D Systems Cat#3660-CD) (human, UniProt P16070 21-220).
T6 construct: Bought reagent
Described as above.

For assay [7], the target named is T7, rHuman IGF-1 sR, (IGF-1 sR), CF (R&D Systems Cat#391-GR) (human, UniProt P08069 31-932).
T7 construct: Bought soluble receptor; also called insulin-like growth factor-1 soluble receptor
The description is as above.

Assay [8] has as its target T8, rHuman Erythropoietin R/Fc Chimera, CF (R&D Systems Cat#963-ER) (human, UniProt P19235 25-250).
T8 construct: Bought reagent; also called EPO R/Fc; Epo R
T8 sequence (looked up): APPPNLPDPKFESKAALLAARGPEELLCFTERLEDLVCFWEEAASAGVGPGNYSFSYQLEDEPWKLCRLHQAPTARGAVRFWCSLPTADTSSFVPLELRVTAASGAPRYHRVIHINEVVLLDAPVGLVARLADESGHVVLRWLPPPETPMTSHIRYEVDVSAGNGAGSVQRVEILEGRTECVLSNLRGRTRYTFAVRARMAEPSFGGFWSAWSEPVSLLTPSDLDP
The description is as above.

Assay [9] concerns the target T1, Recombinant Human DLL4 (R&D Systems …). The assay can be described thus: MSD multispot ECL, antigen spotted, Fab 595.8 nM; blank spot 285.
For assay [10], the target named is T2, rHuman ErbB2/Fc Chimera, CF (R&D …). Described as above.
In assay [11] the target is T3, rHuman EGF R/Fc Chimera, CF (R&D …). The assay is described as above.
Assay [12] addresses T4, rHuman HGF R/c-MET/Fc Chimera, CF (R&D …). The description is as above.
For assay [13], the target named is T5, rHuman Notch-1/Fc Chimera, CF (R&D …). The assay is described as above.
The target of assay [14] is T6, rHuman CD44/Fc Chimera, CF (R&D Systems …). The description is as above.
The target in assay [15] is T7, rHuman IGF-1 sR, (IGF-1 sR), CF (R&D …). The description is as above.
In assay [16] the target is T8, rHuman Erythropoietin R/Fc Chimera, CF …. Described as above.
In assay [17] the target is T9, rHuman Erythropoietin R/Fc Chimera, CF (R&D Systems Cat#963-ER) (human, UniProt P19235 25-250).
T9 construct: Bought recombinant protein; also called EPO R; EPO R/Fc; Fc part of the bought chimera not given
T9 sequence (looked up): T8 sequence (looked up)
The assay can be described thus: ECL Multispot (MSD), antigen spotted; Fab 50 (µM); blank 386.

Assay [18] has as its target T10, Recombinant Human DLL4 (R&D Systems Cat#1506-D4/CF) (human, UniProt Q9NR61 27-529).
T10 construct: Bought recombinant protein; also called delta-like protein 4; rHuman DLL4
The description is as above.

Assay [19] deals with T11, rHuman HGF R/c-MET/Fc Chimera, CF (R&D Systems Cat#358-MT/CF) (human, UniProt P08581 25-932).
T11 construct: Bought recombinant protein; also called HGF R/Fc; Fc part of the bought chimera not given
The assay is described as above.

Assay [20] addresses T12, rHuman CD44/Fc Chimera, CF (R&D Systems Cat#3660-CD) (human, UniProt P16070 21-220).
T12 construct: Bought recombinant protein; Fc part of the bought chimera not given
The description is as above.

Changes are numbered by the printed parent chain. In names and notes the source's numbering stands.

B1: Fab VH1-46_IGHD6-6*01_IGHJ1*01 & L6_IGKJ1*01 (Fab, V domains shown)
VH: QVQLVQSGAEVKKPGASVKVSCKASGYTFTSYYMHWVRQAPGQGLEWMGIINPSGGSTSYAQKFQGRVTMTRDTSTSTVYMELSSLRSEDTAVYYCAREEYSSSSAEYFQHWGQGTLVTVSS
VL: not shown
notes: Only variable domains are tied to the molecule; Tested as a Fab made in E. coli: heavy chain from Plasmid A (CH1 constant region, His6 and Flag tags), kappa light chain from Plasmid C (kappa CL); also called parent Hit Fab against DLL4; VH1-46_IGHD6-6*01_IGHJ1*01 & L6_IGKJ1*01 (parental)
On to B1, for which the ECL signal in assay [1] amounted to 16300 ECL signal; in assay [2] it was 247 ECL signal; in assay [3] it was 290 ECL signal; in assay [4], 205 ECL signal; in assay [5], 375 ECL signal; in assay [6], 348 ECL signal. Besides, the ECL signal in assay [7] was 322 ECL signal; in assay [8], 373 ECL signal; in assay [9], 17200 ECL signal; in assay [10], 321 ECL signal; in assay [11], 403 ECL signal; in assay [12], 353 ECL signal. The ECL signal in assay [13] is 306 ECL signal; in assay [14], 372 ECL signal; in [15] it was 335 ECL signal; in assay [16] it was 378 ECL signal.

B2: Fab VH1-46_IGHD6-6*01_IGHJ1*01 S102A/S103P/S104F (APF) & L6_IGKJ1*01 (Fab, V domains shown)
VH: B1 VH with S102A, S103P, S104F
VL: not shown
notes: Tested as a Fab made in E. coli: VH cloned in Plasmid A (CH1 constant region, His6 and Flag tags), VL in Plasmid C (kappa constant region); also called H:APF & L:wt; APF triple mutant
As for B2, the ECL signal stood at 768 in assay [17], 80000 in assay [18], 525 in assay [19] and 557 in [20].
